Reference: patent publication US20220119536A1 (Boehringer Ingelheim, published 2022)
Several values for one entry are separate records, joined by “and”; a condition that tells them apart may be missing. Equal entries are not always repeated. Where two headings read alike, the source gives them in different places.

How the values were obtained:
Assay in all cases: cell-based or functional assay
human TrkB receptor [1] = biological target: T1, human TrkB receptor (human, UniProt Q16620 32-822)
human TrkB receptor [2] = biological target: T1, human TrkB receptor; remark: listed apart in the source
human VEGF-A [3] = biological target: T2, human VEGF-A (human, UniProt P15692-4 27-191)
T2 sequence (P15692 other isoform, or with tags, fused parts or gaps limits assumed): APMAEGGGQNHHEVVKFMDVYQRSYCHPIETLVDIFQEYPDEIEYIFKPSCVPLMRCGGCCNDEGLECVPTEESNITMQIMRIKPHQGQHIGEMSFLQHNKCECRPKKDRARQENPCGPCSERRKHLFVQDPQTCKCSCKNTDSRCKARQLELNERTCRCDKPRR

human VEGF-A [4] = biological target: T2, human VEGF-A; remark: listed apart in the source
human VEGF-A [5] = biological target: T2, human VEGF-A; remark: listed apart in the source
human VEGF-A [6] = biological target: T2, human VEGF-A; remark: listed apart in the source
human VEGF-A [7] = biological target: T2, human VEGF-A; remark: listed apart in the source
human VEGF-A [8] = biological target: T2, human VEGF-A; remark: listed apart in the source

T1 sequence (Q16620 32-822): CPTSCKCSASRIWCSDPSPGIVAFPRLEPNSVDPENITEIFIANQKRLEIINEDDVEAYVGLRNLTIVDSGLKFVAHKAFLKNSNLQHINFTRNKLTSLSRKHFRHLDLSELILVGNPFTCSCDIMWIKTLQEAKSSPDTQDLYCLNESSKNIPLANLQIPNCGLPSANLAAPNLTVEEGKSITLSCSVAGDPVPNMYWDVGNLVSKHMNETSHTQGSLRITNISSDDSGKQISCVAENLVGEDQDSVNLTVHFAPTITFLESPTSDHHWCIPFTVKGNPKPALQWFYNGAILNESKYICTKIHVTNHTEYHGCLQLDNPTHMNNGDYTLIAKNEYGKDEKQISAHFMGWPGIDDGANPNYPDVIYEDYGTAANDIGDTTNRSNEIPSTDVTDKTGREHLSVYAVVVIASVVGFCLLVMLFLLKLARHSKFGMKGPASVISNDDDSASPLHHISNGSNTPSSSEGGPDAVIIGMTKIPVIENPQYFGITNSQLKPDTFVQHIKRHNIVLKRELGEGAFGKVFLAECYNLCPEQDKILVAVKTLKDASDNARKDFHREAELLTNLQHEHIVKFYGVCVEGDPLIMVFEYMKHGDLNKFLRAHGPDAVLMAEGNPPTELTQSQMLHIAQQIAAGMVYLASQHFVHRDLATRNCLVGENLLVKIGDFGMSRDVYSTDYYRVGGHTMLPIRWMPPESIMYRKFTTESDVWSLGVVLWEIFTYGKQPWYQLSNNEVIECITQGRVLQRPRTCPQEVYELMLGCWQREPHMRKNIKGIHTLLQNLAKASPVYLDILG

B1: human BDNF (ligand, UniProt P23560 129-247, looked up)
chain: HSDPARRGELSVCDSISEWVTAADKKTAVDMSGGTVTVLEKVPVSKGQLKQYFYETKCNPMGYTKEGCRGIDKRHWNSQCRTTQSYVRALTMDSKKRIGWRFIRIDTSCVCTLTIKRGR
Human TrkB receptor [1]
  EC50 (pERK): 0.507 nM
  EC50 (pTrkB): 1.22 nM
Human TrkB receptor [2]
  EC50 (pERK): 0.282 nM
  EC50 (pTrkB): 1.28 nM

B2: TPP-11736 (bispecific antibody, human IgG1, kappa, L234A L235A)
light: DIQMTQSPSSLSASVGDRVTITCRTSENVYSNLAWYQQKPGKAPKLLIYAASNLQSGVPSRFSGSGSGTDYTFTISSLQPEDIATYYCQHFWGSPFTFGQGTKLEIKRTVAAPSVFIFPPSDEQLKSGTASVVCLLNNFYPREAKVQWKVDNALQSGNSQESVTEQDSKDSTYSLSSTLTLSKADYEKHKVYACEVTHQGLSSPVTKSFNRGEC
heavy: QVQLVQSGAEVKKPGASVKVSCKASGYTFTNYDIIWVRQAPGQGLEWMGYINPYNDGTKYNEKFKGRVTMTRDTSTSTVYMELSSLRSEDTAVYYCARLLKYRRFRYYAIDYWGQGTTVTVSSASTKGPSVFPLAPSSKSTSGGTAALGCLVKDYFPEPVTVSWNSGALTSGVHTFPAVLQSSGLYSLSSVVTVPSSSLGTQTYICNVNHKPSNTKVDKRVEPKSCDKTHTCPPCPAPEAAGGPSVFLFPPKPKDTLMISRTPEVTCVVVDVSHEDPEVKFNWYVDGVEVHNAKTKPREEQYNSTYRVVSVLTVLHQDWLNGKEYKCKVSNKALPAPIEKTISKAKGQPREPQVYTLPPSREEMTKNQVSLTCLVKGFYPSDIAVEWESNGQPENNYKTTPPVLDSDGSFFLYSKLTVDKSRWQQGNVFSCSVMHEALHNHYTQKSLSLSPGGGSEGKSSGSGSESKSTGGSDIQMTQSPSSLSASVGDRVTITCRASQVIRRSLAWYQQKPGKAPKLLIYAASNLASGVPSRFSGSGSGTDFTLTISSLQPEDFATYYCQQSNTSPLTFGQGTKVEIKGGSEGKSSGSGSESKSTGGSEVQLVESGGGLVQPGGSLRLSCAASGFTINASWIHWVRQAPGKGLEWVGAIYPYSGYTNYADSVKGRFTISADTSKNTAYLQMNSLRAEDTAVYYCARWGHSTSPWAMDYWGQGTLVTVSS
Human VEGF-A [3]
  IC50 (ERK1/2 phosphorylation): 9.1 nM
  IC50 (p38 MAPK phosphorylation): 7.7 nM
Human VEGF-A [4]
  Bottom plateau (ERK1/2 phosphorylation, counts): 3690 counts
  Bottom plateau (Src phosphorylation, counts): 6300 counts
  IC50 (ERK1/2 phosphorylation): 5.59 nM
  IC50 (Src phosphorylation): 3.97 nM
Human VEGF-A [5]
  Bottom plateau (ERK1/2 phosphorylation, counts): 3690 counts
  Bottom plateau (Src phosphorylation, counts): 6300 counts
  IC50 (ERK1/2 phosphorylation): 5.59 nM
  IC50 (Src phosphorylation): 3.97 nM
Human VEGF-A [6]
  IC50, inhibition of VEGF-induced ERK1/2 phosphorylation: ~4 nM and ~10 nM
  IC50, inhibition of VEGF-induced p38 MAPK phosphorylation: ~7.4 nM
Human VEGF-A [7]
  Bottom plateau (ERK1/2 phosphorylation, counts): 3690 counts
  Bottom plateau (Src phosphorylation, counts): 6300 counts
  IC50 (ERK1/2 phosphorylation): 5.6 nM
  IC50 (Src phosphorylation): 4 nM
Human VEGF-A [8]
  Bottom plateau (ERK1/2 phosphorylation, counts): 3690 counts
  Bottom plateau (Src phosphorylation, counts): 6300 counts
  IC50 (ERK1/2 phosphorylation): 5.59 nM
  IC50 (Src phosphorylation): 3.97 nM

B3: TPP-14936 (bispecific antibody, human IgG1, kappa, L234A L235A)
light: DIQMTQSPSSLSASVGDRVTITCRTSENVYSNLAWYQQKPGKAPKLLIYAASNLQSGVPSRFSGSGSGTDYTFTISSLQPEDIATYYCQHFWGSPFTFGQGTKLEIKRTVAAPSVFIFPPSDEQLKSGTASVVCLLNNFYPREAKVQWKVDNALQSGNSQESVTEQDSKDSTYSLSSTLTLSKADYEKHKVYACEVTHQGLSSPVTKSFNRGEC
heavy: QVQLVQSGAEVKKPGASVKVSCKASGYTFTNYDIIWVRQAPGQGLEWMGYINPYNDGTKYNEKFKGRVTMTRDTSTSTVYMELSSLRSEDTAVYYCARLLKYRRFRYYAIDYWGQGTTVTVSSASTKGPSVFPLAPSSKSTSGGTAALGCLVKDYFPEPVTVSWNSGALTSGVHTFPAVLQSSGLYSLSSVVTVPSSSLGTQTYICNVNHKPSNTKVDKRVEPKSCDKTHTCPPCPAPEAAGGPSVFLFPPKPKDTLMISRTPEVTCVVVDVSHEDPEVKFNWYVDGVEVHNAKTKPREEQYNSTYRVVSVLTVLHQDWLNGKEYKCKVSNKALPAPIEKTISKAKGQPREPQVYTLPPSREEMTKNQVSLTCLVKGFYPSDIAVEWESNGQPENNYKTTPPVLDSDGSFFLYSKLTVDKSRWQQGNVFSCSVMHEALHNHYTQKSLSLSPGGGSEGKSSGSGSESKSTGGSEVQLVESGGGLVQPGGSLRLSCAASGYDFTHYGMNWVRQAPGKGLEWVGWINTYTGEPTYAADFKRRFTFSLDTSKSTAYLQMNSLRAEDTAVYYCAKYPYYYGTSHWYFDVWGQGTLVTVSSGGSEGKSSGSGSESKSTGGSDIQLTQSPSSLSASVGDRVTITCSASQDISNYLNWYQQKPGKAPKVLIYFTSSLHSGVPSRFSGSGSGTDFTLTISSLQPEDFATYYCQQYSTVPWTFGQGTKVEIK
Human VEGF-A [5]
  Bottom plateau (ERK1/2 phosphorylation, counts): -340 counts
  Bottom plateau (Src phosphorylation, counts): 4650 counts
  IC50 (ERK1/2 phosphorylation): 3.49 nM
  IC50 (Src phosphorylation): 3.4 nM
Human VEGF-A [6]
  concentration for full inhibition of VEGF-induced HRMEC proliferation: 1 nM
Human VEGF-A [7]
  Bottom plateau (ERK1/2 phosphorylation, counts): -341 counts
  Bottom plateau (Src phosphorylation, counts): 4650 counts
  IC50 (ERK1/2 phosphorylation): 3.5 nM
  IC50 (Src phosphorylation): 3.4 nM

B4: TPP-11738 (bispecific antibody, human IgG1, kappa, L234A L235A)
light: DIQMTQSPSSLSASVGDRVTITCRTSENVYSNLAWYQQKPGKAPKLLIYAASNLQSGVPSRFSGSGSGTDYTFTISSLQPEDIATYYCQHFWGSPFTFGQGTKLEIKRTVAAPSVFIFPPSDEQLKSGTASVVCLLNNFYPREAKVQWKVDNALQSGNSQESVTEQDSKDSTYSLSSTLTLSKADYEKHKVYACEVTHQGLSSPVTKSFNRGEC
heavy: not shown
Human VEGF-A [6]
  IC50, inhibition of VEGF-induced ERK1/2 phosphorylation: ~4 nM and ~10 nM

B5: TPP-14937 (bispecific antibody, human IgG1, kappa, L234A L235A)
light: DIQMTQSPSSLSASVGDRVTITCRTSENVYSNLAWYQQKPGKAPKLLIYAASNLQSGVPSRFSGSGSGTDYTFTISSLQPEDIATYYCQHFWGSPFTFGQGTKLEIKRTVAAPSVFIFPPSDEQLKSGTASVVCLLNNFYPREAKVQWKVDNALQSGNSQESVTEQDSKDSTYSLSSTLTLSKADYEKHKVYACEVTHQGLSSPVTKSFNRGEC
heavy: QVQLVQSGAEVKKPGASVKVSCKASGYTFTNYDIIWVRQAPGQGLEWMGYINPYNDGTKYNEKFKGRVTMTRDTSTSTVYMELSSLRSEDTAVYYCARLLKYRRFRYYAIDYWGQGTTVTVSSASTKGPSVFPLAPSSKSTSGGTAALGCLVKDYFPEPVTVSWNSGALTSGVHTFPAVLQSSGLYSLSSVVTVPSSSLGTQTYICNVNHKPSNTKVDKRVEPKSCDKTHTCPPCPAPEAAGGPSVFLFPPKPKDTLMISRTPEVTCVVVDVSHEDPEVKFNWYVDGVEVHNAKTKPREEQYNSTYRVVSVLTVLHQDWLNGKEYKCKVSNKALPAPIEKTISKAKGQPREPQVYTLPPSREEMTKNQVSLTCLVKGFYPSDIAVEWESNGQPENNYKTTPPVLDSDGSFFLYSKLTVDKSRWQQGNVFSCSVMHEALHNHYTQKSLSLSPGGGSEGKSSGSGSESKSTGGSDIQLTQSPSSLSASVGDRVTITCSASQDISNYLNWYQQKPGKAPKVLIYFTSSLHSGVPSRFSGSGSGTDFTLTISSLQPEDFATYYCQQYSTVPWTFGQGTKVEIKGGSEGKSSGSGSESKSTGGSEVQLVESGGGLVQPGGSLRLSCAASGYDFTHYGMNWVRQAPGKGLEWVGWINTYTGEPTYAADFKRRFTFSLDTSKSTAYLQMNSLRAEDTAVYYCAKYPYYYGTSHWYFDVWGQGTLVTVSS
Human VEGF-A [5]
  Bottom plateau (ERK1/2 phosphorylation, counts): -926 counts
  Bottom plateau (Src phosphorylation, counts): 4570 counts
  IC50 (ERK1/2 phosphorylation): 5.58 nM
  IC50 (Src phosphorylation): 5.83 nM
Human VEGF-A [6]
  concentration for full inhibition of VEGF-induced HRMEC proliferation: 4 nM
Human VEGF-A [7]
  Bottom plateau (ERK1/2 phosphorylation, counts): -927 counts
  Bottom plateau (Src phosphorylation, counts): 4570 counts
  IC50 (ERK1/2 phosphorylation): 5.6 nM
  IC50 (Src phosphorylation): 5.8 nM

B6: TPP-13788 (B20 IgG) (antibody, V domains shown)
VH: EVQLVESGGGLVQPGGSLRLSCAASGFTINASWIHWVRQAPGKGLEWVGAIYPYSGYTNYADSVKGRFTISADTSKNTAYLQMNSLRAEDTAVYYCARWGHSTSPWAMDYWGQGTLVTVSS
VL: DIQMTQSPSSLSASVGDRVTITCRASQVIRRSLAWYQQKPGKAPKLLIYAASNLASGVPSRFSGSGSGTDFTLTISSLQPEDFATYYCQQSNTSPLTFGQGTKVEIK
Human VEGF-A [3]
  IC50 (ERK1/2 phosphorylation): 3 nM
  IC50 (p38 MAPK phosphorylation): 2.4 nM
Human VEGF-A [6]
  fold increase of VEGF-A scavenging potency vs. TPP-11736: ~3 fold

B7: TPP-14938 (bispecific antibody, human IgG1, kappa, L234A L235A)
light: DIQMTQSPSSLSASVGDRVTITCRASQVIRRSLAWYQQKPGKAPKLLIYAASNLASGVPSRFSGSGSGTDFTLTISSLQPEDFATYYCQQSNTSPLTFGQGTKVEIKRTVAAPSVFIFPPSDEQLKSGTASVVCLLNNFYPREAKVQWKVDNALQSGNSQESVTEQDSKDSTYSLSSTLTLSKADYEKHKVYACEVTHQGLSSPVTKSFNRGEC
heavy: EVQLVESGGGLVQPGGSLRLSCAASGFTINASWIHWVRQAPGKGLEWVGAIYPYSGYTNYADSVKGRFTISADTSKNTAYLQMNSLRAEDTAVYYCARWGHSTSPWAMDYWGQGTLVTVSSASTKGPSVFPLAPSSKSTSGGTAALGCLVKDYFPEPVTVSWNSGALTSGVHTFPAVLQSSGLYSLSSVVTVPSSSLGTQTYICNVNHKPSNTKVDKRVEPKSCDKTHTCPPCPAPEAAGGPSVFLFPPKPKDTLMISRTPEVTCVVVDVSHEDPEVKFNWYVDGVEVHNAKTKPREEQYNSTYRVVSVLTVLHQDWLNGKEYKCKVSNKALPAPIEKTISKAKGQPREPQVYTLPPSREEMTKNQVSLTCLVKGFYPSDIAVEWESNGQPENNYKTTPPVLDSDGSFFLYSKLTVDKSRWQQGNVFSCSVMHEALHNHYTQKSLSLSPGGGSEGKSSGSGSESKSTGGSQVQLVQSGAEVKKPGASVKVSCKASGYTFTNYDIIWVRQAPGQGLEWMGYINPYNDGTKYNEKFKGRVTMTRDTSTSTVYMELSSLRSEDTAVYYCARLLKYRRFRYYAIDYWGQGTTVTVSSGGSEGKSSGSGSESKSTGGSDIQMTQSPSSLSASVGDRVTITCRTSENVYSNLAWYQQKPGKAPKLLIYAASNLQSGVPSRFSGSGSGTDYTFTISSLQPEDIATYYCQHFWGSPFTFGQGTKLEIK
Human VEGF-A [4]
  Bottom plateau (ERK1/2 phosphorylation, counts): 1330 counts
  Bottom plateau (Src phosphorylation, counts): 5480 counts
  IC50 (ERK1/2 phosphorylation): 2.71 nM
  IC50 (Src phosphorylation): 1.8 nM
Human VEGF-A [6]
  concentration for full inhibition of VEGF-induced HRMEC proliferation: > 16 nM
Human VEGF-A [8]
  Bottom plateau (ERK1/2 phosphorylation, counts): 1330 counts
  Bottom plateau (Src phosphorylation, counts): 5480 counts
  IC50 (ERK1/2 phosphorylation): 2.71 nM
  IC50 (Src phosphorylation): 1.8 nM

B8: TPP-14939 (bispecific antibody, human IgG1, kappa, L234A L235A)
light: DIQMTQSPSSLSASVGDRVTITCRASQVIRRSLAWYQQKPGKAPKLLIYAASNLASGVPSRFSGSGSGTDFTLTISSLQPEDFATYYCQQSNTSPLTFGQGTKVEIKRTVAAPSVFIFPPSDEQLKSGTASVVCLLNNFYPREAKVQWKVDNALQSGNSQESVTEQDSKDSTYSLSSTLTLSKADYEKHKVYACEVTHQGLSSPVTKSFNRGEC
heavy: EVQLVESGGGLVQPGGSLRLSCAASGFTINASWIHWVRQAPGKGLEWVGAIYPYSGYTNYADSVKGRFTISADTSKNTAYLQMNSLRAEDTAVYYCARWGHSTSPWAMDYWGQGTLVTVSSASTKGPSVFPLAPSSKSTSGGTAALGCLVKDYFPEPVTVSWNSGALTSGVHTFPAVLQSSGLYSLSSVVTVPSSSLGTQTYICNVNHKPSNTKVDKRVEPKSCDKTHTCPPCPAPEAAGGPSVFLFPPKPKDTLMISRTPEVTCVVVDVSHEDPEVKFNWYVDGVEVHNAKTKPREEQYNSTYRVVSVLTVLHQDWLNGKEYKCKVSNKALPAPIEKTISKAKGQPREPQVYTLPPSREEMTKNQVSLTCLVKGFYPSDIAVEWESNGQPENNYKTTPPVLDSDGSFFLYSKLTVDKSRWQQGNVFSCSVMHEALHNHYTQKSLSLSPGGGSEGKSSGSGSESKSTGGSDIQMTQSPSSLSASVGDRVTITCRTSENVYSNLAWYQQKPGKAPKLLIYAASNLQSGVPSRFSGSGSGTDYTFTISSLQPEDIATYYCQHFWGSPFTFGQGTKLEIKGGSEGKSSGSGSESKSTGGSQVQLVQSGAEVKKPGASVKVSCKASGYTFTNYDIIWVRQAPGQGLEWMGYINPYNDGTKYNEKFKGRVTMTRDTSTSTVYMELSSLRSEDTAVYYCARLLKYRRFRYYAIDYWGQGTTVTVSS
Human VEGF-A [4]
  Bottom plateau (ERK1/2 phosphorylation, counts): 1140 counts
  Bottom plateau (Src phosphorylation, counts): 5540 counts
  IC50 (ERK1/2 phosphorylation): 2.51 nM
  IC50 (Src phosphorylation): 1.16 nM
Human VEGF-A [6]
  concentration for full inhibition of VEGF-induced HRMEC proliferation: > 16 nM
Human VEGF-A [8]
  Bottom plateau (ERK1/2 phosphorylation, counts): 1140 counts
  Bottom plateau (Src phosphorylation, counts): 5540 counts
  IC50 (ERK1/2 phosphorylation): 2.51 nM
  IC50 (Src phosphorylation): 1.16 nM
